In US20230391850A1:

What was measured:
[1] = biological target: human polyclonal IgG (Gammanorm) (human); assay: Biacore SPR, ligand on CM5 chip, 1 mg/ml human polyclonal IgG flowed over; signal left after 100 cycles of 10 min in 0.5 M NaOH
[2] = biological target: human polyclonal IgG (Gammanorm) (human); assay: Biacore SPR, remaining IgG binding capacity after 100 NaOH cycles as a ratio to the reference ligand SEQ ID NO: 12
[3] = biological target: human polyclonal IgG (Gammanorm) (human); assay: Biacore SPR, reference ligand on CM5 chip, 1 mg/ml human polyclonal IgG; signal left after 100 cycles of 10 min in 0.5 M NaOH (run beside SEQ ID NO 8)
[4] = biological target: human polyclonal IgG (Gammanorm) (human); assay: Biacore SPR, reference ligand on CM5 chip, 1 mg/ml human polyclonal IgG; signal left after 100 cycles of 10 min in 0.5 M NaOH (run beside SEQ ID NO 9)

Substance | Capacity after 100 cycles (remaining IgG binding capacity) [1] [%] | Capacity relative to Ref [2] | Reference capacity after 100 cycles (remaining IgG binding capacity) [3] [%] | Reference capacity after 100 cycles (remaining IgG binding capacity) [4] [%]
Zvar(Q9W, N11E, Q40V, A42K, N43A, L44I)1 (designed binder) | 70 | 1.09 | – | –
Zvar(Q9A, N11R, Q40V, A42K, N43A, L44I)1 (designed binder) | 74 | 1.14 | – | –
Zvar(Q9A,N11E,Q40V,A42K,N43A,L44Di (SEQ ID NO: 12) (designed binder) | – | – | 65 | 64
